According to patent publication US20260234269A1 (TRUEBINDING, published 2026):

T1: hGal3 peptide 1 (human)
T1 construct: also called peptide 1 of Gal3
T1 peptide: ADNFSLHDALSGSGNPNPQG

T2: hGal3 peptide 7 (human)
T2 peptide: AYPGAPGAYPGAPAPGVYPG

T3: hGal3 peptide 2 (human)
T3 peptide: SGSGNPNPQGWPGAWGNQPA

T4: hGal3 peptide 4 (human)
T4 peptide: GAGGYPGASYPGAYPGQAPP


Assays:
[1] = target: T5, mouse Gal3 protein (BioLegend) (mouse, UniProt P16110 2-264, limits assumed); assay: ELISA, mGal3 coated, mouse TIM-3 Fc
T5 construct: also called mGal3

[2] = target: T6, Flag-tagged human Gal3 protein on A20 cells (A20 Gal3 cells) (human, UniProt P17931 2-250); assay: flow cytometry, A20 Gal3 cells, anti-hFc APC
T6 construct: also called A20 cells overexpressing human Gal3; not shown: Flag tag

[3] = target: T7, mouse Gal3 on mouse cells (B16F10 tumor cells, RAW264.7 macrophages) (mouse, UniProt P16110 2-264); assay: flow cytometry, RAW cells, IMT001 10 ug/ml
T7 construct: whole, on cells; also called mGal3; Gal3 on RAW cells

hGal3 peptide 1 = target: T1, hGal3 peptide 1; assay: dot blot, 20 ug peptide per dot, anti-mIgG HRP
hGal3 peptide 7 [4] = target: T2, hGal3 peptide 7; assay: dot blot, 20 ug peptide per dot, anti-mIgG HRP
hGal3 peptide 2 [5] = target: T3, hGal3 peptide 2; assay: dot blot, 20 ug peptide per dot, anti-mIgG HRP
hGal3 peptide 4 = target: T4, hGal3 peptide 4; assay: dot blot, 20 ug peptide per dot, anti-mIgG HRP
[6] = target: T8, Human Galectin-3 protein (Acro Biosystems, GA3-H5129) (human, UniProt P17931 2-250); assay: SPR Biacore T200, antibody captured, Galectin-3 analyte
T8 construct: Bought protein; also called hGal3; Gal3; not shown: linker-spaced 6-histidine tag

[7] = target: T8, Human Galectin-3 protein (Acro …); assay: ELISA, hGal3 coated, antibody 3 ug/mL, competitor hTIM3
hGal3 peptide 7 [8] = target: T2, hGal3 peptide 7; assay: peptide ELISA, 20-mer library (Epitope Mapping)
hGal3 peptide 2 [9] = target: T3, hGal3 peptide 2; assay: peptide ELISA, 20-mer library (Epitope Mapping)

T8 sequence (P17931 2-250): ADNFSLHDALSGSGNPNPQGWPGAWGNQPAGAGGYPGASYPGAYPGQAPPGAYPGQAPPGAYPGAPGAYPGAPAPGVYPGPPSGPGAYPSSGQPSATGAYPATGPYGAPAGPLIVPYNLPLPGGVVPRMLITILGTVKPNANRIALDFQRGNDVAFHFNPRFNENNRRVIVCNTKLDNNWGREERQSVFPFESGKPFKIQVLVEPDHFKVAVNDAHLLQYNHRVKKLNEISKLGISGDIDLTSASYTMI
T5 sequence (P16110 2-264 limits assumed): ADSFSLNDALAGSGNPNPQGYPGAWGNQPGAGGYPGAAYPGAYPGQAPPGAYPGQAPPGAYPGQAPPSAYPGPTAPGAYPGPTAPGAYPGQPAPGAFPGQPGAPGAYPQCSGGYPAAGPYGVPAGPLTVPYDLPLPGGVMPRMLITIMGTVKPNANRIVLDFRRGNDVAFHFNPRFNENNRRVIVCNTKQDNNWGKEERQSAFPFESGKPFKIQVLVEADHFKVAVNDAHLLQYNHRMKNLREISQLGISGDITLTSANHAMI
T7 sequence (P16110 2-264, one chain of several): as the sequence (P16110 2-264 limits assumed) above

| Binder | binding result [1] | binding result [2] | MFI, fold over isotype control antibody [3] [fold] | binding result (hGal3 peptide 1) | binding result (hGal3 peptide 7 [4]) | binding result (hGal3 peptide 2 [5]) | binding result (hGal3 peptide 4) | Kd [6] [nM] | GAL3-TIM3 Blocking @ 3 ug/mL [7] [%] | binding result (hGal3 peptide 7 [8]) | binding result (hGal3 peptide 2 [9]) |
| --- | --- | --- | --- | --- | --- | --- | --- | --- | --- | --- | --- |
| mouse TIM-3 Fc protein (R&D systems) (Fc fusion, UniProt Q8VIM0 20-191, looked up, also called mTIM-3 Fc; mTIM-3-Fc; not shown: Fc, detected with anti-human Fc / anti-human IgG) RSLENAYVFEVGKNAYLPCSYTLSTPGALVPMCWGKGFCPWSQCTNELLRTDERNVTYQKSSRYQLKGDLNKGDVSLIIKNVTLDDHGTYCCRIQFPGLMNDKKLELKLDIKAAKVTPAQTAHGDSTTASPRTLTTERNGSETQTLVTLHNNNGTKISTWADEIKDSGETIR | binds | binds | – | – | – | – | – | – | – | – | – |
| mIMT001 (IMT001) (antibody, V domains shown, treated here as one molecule; also called mAb IMT001; Gal3 antibody clone IMT001) VH: QIQLVQSGPELKKPGETVKISCKASGYTFTNYGMNWVKQAPGKGLKWMGWINTNTGEPTYVEEFKGRFAFSLETSASTAYLQINNLKNEDTATYFCAPYDNFFAYWGQGTLVTVSA VL: DIVITQDELSNPVTSGESVSISCRSSKSLLYKDGKTYLNWFLQRPGQSPQLLIYLMSTHASGVSDRFSGSGSGTDFTLEISRVKAEDVGVYYCQQLVDYPLTFGAGTKLELK | – | – | > 10 | no binding (tested: 1 ug/ml) | no binding (tested: 1 ug/ml) | no binding (tested: 1 ug/ml) | no binding (tested: 1 ug/ml) | 1.67 | 80 | – | – |
| 7D8.2D8 (antibody, V domains shown, murine antibody) VH: EVQLVESGGGLVKPGGSLKLSCAASGFTFSSYAMSWVRQTPEKRLEWVATISDGGIYTYYPDNVKGRFTISRDNAKNNLFLQMSHLKSEDTAMYYCVRDGGYWGQGTTLTVSS VL: DVLMTQTPLSLPVSLGDQASISCRSSQSIVHSNGNTYLEWYLQKPGQSPKLLIYKVSNRFSGVPDRFSGSGSGTDFTLKISRVEAEDLGVYYCFQGSHVPLTFGAGTKLELK | – | – | – | – | – | – | – | 2.49 | 12 | binds | binds |
| 15F10.2D6 (antibody, V domains shown, murine antibody) VH: EVQLVESGGGLVKPGGSLKLSCAASGFAFSSYAMSWVRQTPEKRLEWVATISDGGVYTYYTDHVKGRFTISRDNAEDNLYLQMSHLKSEDTAMYYCVRDGGYWGQGTTLTVSS VL: DVLMTQTPLSLPVSLGDQASISCRSSQSIVHNNGNTYLEWYLQKPGQSPKLLIYKVSNRFSGVPDRFSGSGSGTDFTLKISRVEAEDLGVYYCFQGSHVPLTFGGGTKLELK | – | – | – | – | – | – | – | 2.06 | 19 | binds | binds |
